Data on 50 sequences can be found in the domain aggregation screens of Martell et al. (2025).

This data set in a line: soluble fraction after stress (log2 fold change); higher = more stays soluble; pooled small domains, quantitative proteomics. As to conditions: stress: 50 degC. A digest of the protocol:
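Each library was heated to 50°C as a stress step. The libraries, made up of small protein domains, were pooled and analysed at high throughput by quantitative proteomics. The reported value is the base-two logarithm of the fold change in each protein's soluble amount after stress, taken as a measure of aggregation propensity. The higher the value, the more protein stays in solution.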
Consider “HMYEVVPNMKGLSYEQAATALRTAGLEPELSDSIYDDKTRPGTVLEQSPRANTKVKPGRTVYLTVNAF”, for which the “soluble fraction (log2)” value is 0.0459.

In the case of “HMPFGIYGGKVSSLDDLKDKAAVLVPNDVSNEARALLLLEAQGLIKLKEGVGLEATRNDIVEN”, the “soluble fraction (log2)” value is ≥ 0.62.

As to “HMSPAETGIYHILVENGKPNRHGLDATNKNENWLRQFLITQNTRLEDVFLLLADDGGGIRFFKSQ”, the “soluble fraction (log2)” value is -0.498.

“HMLLPGEELRVMIIQEGKEYGQGVGYLDDGTMVVVEDGQRALNRTENVVVTKVLQTTAGRMIFAK”: the “soluble fraction (log2)” value is -0.631.

With “HMNMMESNLFAVYDNDDIVKTLRQGAMEIDSLIRLMGKSSAEVLEKLTTMELQGIITRSGNIIALNN”, the “soluble fraction (log2)” value is -0.064.

Regarding “HMARNHYETLGVGRTATGDEIRKAYRSEAQKHHPDRGGDAERMQSLNEARDTLLDDQARAAYDQELDL”, the “soluble fraction (log2)” value amounted to 0.125.

As for “HMVSRAFEEETVKRAESGNQEAALFALELAIREIEHSYEKSKIIDYFVSKVRLFLDNGVSLERALGIH”, the “soluble fraction (log2)” value worked out at 0.0637.

Turning to “HMYSINKTEFGERIKSAREELKMTQTQLAQLLKTSQTTVAKYEHGEQIPRADVLATISKATGKSTDWLLFG”, the “soluble fraction (log2)” value was -0.017.

Take “HMGADGIPGKNGENGETSYVHFAYATSADGKTGFSTTDTVGKTYMGQYADFEKADSEDPTKYRWGKFQGP”: the “soluble fraction (log2)” value stood at 0.102.

On to “HMEQNTKAYEQVRTLTDLLNQYRHEYYNLSAPSVSDQEYDRLFDALAALEKQTGIVMSNSPTQTVG”, for which the “soluble fraction (log2)” value came to 0.0359.

On to “HMEREQPFAVTEAYRGMRLDRFLQAMLPRMSRAAIQDAIDNRVRLGSGRAAKASLRPAIGDTVFFGQRI”, for which the “soluble fraction (log2)” value was -0.822.

For the sequence “HMIALLRLGTAPDIKAQAPLATILARHNGEMSAKDLWQRFGGEIDTFYAQLKTEVAHGWILEPT”, the “soluble fraction (log2)” value is -0.617.

For the sequence “HMAEMRYLDQIYEVNVPLPDLSLEDGDLLARWAVNFHQRYEELFSYRQSDQEIRLVTLRVTVLGELP”, the “soluble fraction (log2)” value was -0.653.

For the sequence “HMDDYRIEDMMTVVEEQVIRQKETNLSWFFKRAGSLNEIITIFLAALELIKVHRVYVKQEHNFDDIILRKE”, the “soluble fraction (log2)” value worked out at 0.133.

As to “HMDADRILHKTLKPRELEIYQLIKAYLEEHSQIANAKVQEISGLSEATTRRYLNIFVEFGLLKTS”, the “soluble fraction (log2)” value is -0.0476.

As for “HMRILDFPALKTEFDQLTKDLMAKYPEDGADRVRAIIETVLGPGKKVGALQPHQAELLAEVNTSLKANL”, the “soluble fraction (log2)” value came out at 0.153.

On to “HMSDYKSALQEAVQTNKQSIEYVLIKESGPAHNKTFTFEVRIDNISYGVGTAKSKKEAEQIAAKDALDKLV”, for which the “soluble fraction (log2)” value is -0.0635.

With “HMIMTIYEYIARNNPTGAKRVIESFGYVVTQPKKMGDNLRMLVAQEGEPALKAVVDLHPDKDLILEV”, the “soluble fraction (log2)” value was -2.87.

With “HMVLTYYSVLGVKTDATTEEIKSTYKQLAIRNHPDRGGSEEVMKMINLAAEILSDPKSRKEYDLSLDA”, the “soluble fraction (log2)” value was -2.87.

As to “HMTLDSLEKLSVNDLEKMLVNMPVGYKTIFLLSVIDEYSHKEIGELLGITPETSRSQLFRAIKWIKTNIF”, the “soluble fraction (log2)” value was -0.428.

Regarding “HMEDTVNVPIQINGKLRHVIQVQIGTSEEEIQKIALSEEQVKKFTDGHEILKVMVPKGKLVSIVI”, the “soluble fraction (log2)” value is -0.129.

For “HMKMATITKRTNPSGAVVYRAQVRVKREGYPPYSESRTFSKKSLATEWAKRREFEIETNPDLLFN”, the “soluble fraction (log2)” value was -1.26.

As to “HMATSLTEQEKLIFGLLKKQSPIELSSLKEQAGLSNKKWDKAIKGLSTQQLAKVTKTENGLFVHLLQ”, the “soluble fraction (log2)” value stood at 0.148.

For the sequence “HMSDTSAIEKIIDEVLSDESSQKAINDIKNGNEKVYGFLVGQVMKKSQGKANPGLVQKMLREKIAK”, the “soluble fraction (log2)” value is 0.212.

With “HMVDPRLRSLTPQERRILEHIAEGLTNRQIAEDMFLAEKTVKNYVTSILDKLGMDSRTQAAVYAATHPT”, the “soluble fraction (log2)” value is -0.252.

As for “HMQLSQLLQPFDINAFKGHPLYTEENVKMFNDYTNRVKEWTKGTPYEQYWVTKEGQPTMLAWDSFKK”, the “soluble fraction (log2)” value was -0.972.

As to “HMPNQLLELVEMEIRDLLNEYEFPGDDTPIIQGSALKALEDPMGPWGDKIMDLMDAVDSYIPDPE”, the “soluble fraction (log2)” value was -0.581.

Consider “HMDIEHREMKLQKLVITADSPLVGKTLKESNVRQRYNFMVVGVEEGQKNLTMINPNRRFEVGDIVWVVGEE”, for which the “soluble fraction (log2)” value is -0.0892.

With “HMRNSFTVENTGERLDVFLTGQMPEFSRSHIQKLIASGQAWVNGVNRKGNFKLKPHDVVELEVPEPE”, the “soluble fraction (log2)” value is 0.53.

Regarding “HMNFRESVLAVFENSKQKYLDFDEIAKRLGLTRGFDRQALASMLNELTRNDEIVFTKRNKYTLPEN”, the “soluble fraction (log2)” value was 0.125.

For the sequence “HMADRDKYIIMGQQLLRAAFEHFGKKATDKALENAANKLRISDVPELYARLGSAELQPRDVINVIFPD”, the “soluble fraction (log2)” value was -0.0534.

On to “HMKNANGYGSITKLKGNRRKPYMVRITVGRDENGFPIRKVLGYYSSKANAVAALSDYNREPYDI”, for which the “soluble fraction (log2)” value is -0.667.

Regarding “HMSLHSITIPQEFIGAVIGPGGKVIQEIQKQTGTTITITEKDNKGYVDIFGEDKGALDSALARIKEIVAIP”, the “soluble fraction (log2)” value worked out at 0.182.

In the case of “HMNDVHELPYSSFIEMVERGHVISVTVKHINIEFESTKNENYRTIAPQAMTPPYLELLLKNKDSVKVTFLP”, the “soluble fraction (log2)” value was -1.69.

In the case of “HMEHAETDTRERILVVAERLFRQLGYQKTTVADIAKELRMSPANVYRFFDSKKSIHEGVARTL”, the “soluble fraction (log2)” value was -0.228.

For the sequence “HMVPTYEAYVGKEGLVVGTLRPAGTAEFDGERLDVVSEGEYLEAGTRVQIVRTEGRRIVVRKIN”, the “soluble fraction (log2)” value came to 0.0504.

Turning to “HMALWFDEWKKYQDTIASADLLPDKAERDALIAQAEDRFNYWMDIYPRSASLNHSFDDLYEEHRRKIE”, the “soluble fraction (log2)” value is -0.75.

With “HMLLGDYIQKLRNQRGLSQQEFADKLGIGRSTLANYEQNKRSPDYETLIEISKFFNVSIDELLGV”, the “soluble fraction (log2)” value was -0.484.

As for “HMTPYEVLVYESLKQKILSGGYAAGEKIPEQSVSEELGVSRSPLRSAIRRLASEGLIEYYPYRGAFVKA”, the “soluble fraction (log2)” value is -0.347.

As for “HMTEKIRLTVDEAGKNQRVDKYISTLLTQFSRSSIKTWIETGNILLDNTRTKPRTLLSPGQVIDIQPRFED”, the “soluble fraction (log2)” value is -0.643.

Turning to “HMDGPGDRLLIAIQENSMTQKKFAQLIGMSPNGLNSIIKGKKRLSRVLAIATERLTGVRADWILQNEQPK”, the “soluble fraction (log2)” value was 0.0136.

Turning to “HMADLNFHQQIRSLPPEQQEILLLRFGQELTLRQIAQVTGVPLRTVQSRLRAALKKLKSQLEKEE”, the “soluble fraction (log2)” value is -0.39.

In the case of “HMDPNAITSAQVTKLQVLANEKGFAERQARLTMWAEVIGRNVGTANELTKAEAHKLIEHMDALPV”, the “soluble fraction (log2)” value was -0.488.

Consider “HMYHIYPVADNDTPKLSADRLEYSLSNALLTNKLLNIDEIKKIYNDVILDKDEDGTLELSFKS”, for which the “soluble fraction (log2)” value stood at 0.0308.

Take “HMSSEITYDKFIEMVEEGNVKEVTLQSDTLTIKPKHQDSAFSEKEYYTRQMESADQLTERLEGTGIEFHS”: the “soluble fraction (log2)” value is 0.104.

Turning to “HMAAVPQPQRSETIVYIGGRKFYVHTVQAGETLYSIARLYGVSEQTLVANNPTMADVVKADQNVRIPVPA”, the “soluble fraction (log2)” value was -0.272.

Turning to “HMENLVPVVVATTNIEPRTQITDAMVKVEQIPALGRNESMLEDPALVVGGYATGKIYAGQSFIQPMVSK”, the “soluble fraction (log2)” value turned out to be 0.179.

“HMQQLIEFSVTKGHPWINKKIMDLNLPENQLILTIQREGHVVSAEGKTIILENDRITISTDDR”: the “soluble fraction (log2)” value is -0.0156.

As to “HMAGPRRRLLDAAIDRAAERGLGDLSLRALAEELGTSHRMLSHHFGSKDGLWLAIVEEVERRQ”, the “soluble fraction (log2)” value is -0.952.

“HMQIMVVDEADRMLDMGFIPDIERIFQLTPFTRQTLFFSATMAPEIERITDTFLHSPERIEVAR”: the “soluble fraction (log2)” value is -0.288.
